Molecular target: GST–INAD fusion protein (full-length INAD in pGEX5.1) (Drosophila, UniProt Q24008 1-674)
Test: pull-down

B1: PKC^D (last three residues changed to aspartic acid), in vitro translated, 35S-labelled (enzyme, Drosophila, UniProt P13677 1-700, looked up)
chain: MAAAAVATPGATVLPPSVPSAAPGAKAPAAGAGKGPGNLLEITGEANIVNYMKNRLRKGAMKRKGLEMVNGHRFGVRFFKNPTYCGHCKDFIWGFGKQGFQCEECRFNIHQKCCKFVVFKCPGKDTDFDADCAKVKHGWISTTYTTPTFCDECGLLLHGVAHQGVKCENCNLNVHHACQETVPPMCGADISEVRGKLLLYVELKGNNLKVDIKEAANLIPMDTNGFSDPYIAVQMHPDRSGRTKKKTKTIQKNLNPVFNETFTFELQPQDRDKRLLIEVWDWDRTSRNDFMGSFSFSLEELQKEPVDGWYKFLSQVEGEHYNIPCVDAFNDIARLRDEVRHDRRPNEKRRMDNKDMPHNMSKRDMIRAADFNFVKVIGKGSFGKVLLAERRGTDELYAVKVLRKDVIIQTDDMELPMNEKKILALSGRPPFLVSMHSCFQTMDRLFFVMEYCKGGDLMYHMQQYGRFKESVAIFYAVEVAIALFFLHERDIIYRDLKLDNILLDGEGHVKLVDFGLSKEGVTERQTTRTFCGTPNYMAPEIVSYDPYSIAADWWSFGVLLFEFMAGQAPFEGDDETTVFRNIKDKKAVFPKHFSVEAMDIITSFLTKKPNNRLGAGRYARQEITTHPFFRNVDWDKAEACEMEPPIKPMIKHRKDISNFDDAFTKEKTDLTPTDKLFMMNLDQNDFIGFSFMNPEFIDDD
modifications: [35S]methionine label
- fold reduction of binding relative to wild-type PKC: ~8 fold
